Our source for the protein stability index values is the supplement of paper PMC10567573.

First the molecules themselves.
B1: SPOPL (parent)
chain: PDDKLTLFCEVSVVQDSVNISGHT
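Note: lentivirally expressed fusions sorted by FACS into six bins by GFP to DsRed ratio, PSI derived from sequencing read proportions per bin multiplied by bin number.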

In this data set the parent is B1. In words: protein stability index of a GFP-peptide fusion (GPS, HEK-293T) (PSI 1-6); higher = more stable. The note with it: c terminus: a fixed tail appended.
For PDDKLTLFQEVSVVQDSVNISGHT, the protein stability index is 4.21.

Take PDDKLTLFNEVSVVQDSVNISGHT: the protein stability index turned out to be 4.34.

With PDDKLTLFVEVSVVQDSVNISGHT, the protein stability index is 3.85.

Turning to PDDKLTLFIEVSVVQDSVNISGHT, the protein stability index came to 3.05.

In the case of PDDKLTLFWEVSVVQDSVNISGHT, the protein stability index was determined as 2.62.

With PDDKLTLFLEVSVVQDSVNISGHT, the protein stability index worked out at 3.25.

Regarding PDDKLTLFHEVSVVQDSVNISGHT, the protein stability index was determined as 4.09.

In the case of PDDKLTLFMEVSVVQDSVNISGHT, the protein stability index came out at 2.13.

For PDDKLTLFYEVSVVQDSVNISGHT, the protein stability index stood at 2.07.

On to PDDKLTLFTEVSVVQDSVNISGHT, for which the protein stability index came out at 3.83.

Take PDDKLTLFEEVSVVQDSVNISGHT: the protein stability index was found to be 4.47.

Consider PDDKLTLFPEVSVVQDSVNISGHT, for which the protein stability index worked out at 4.91.

PDDKLTLFGEVSVVQDSVNISGHT: the protein stability index came to 4.42.

Regarding PDDKLTLFSEVSVVQDSVNISGHT, the protein stability index turned out to be 4.52.

With PDDKLTLFREVSVVQDSVNISGHT, the protein stability index was determined as 4.54.

For PDDKLTLFKEVSVVQDSVNISGHT, the protein stability index stood at 4.34.

Consider PDDKLTLFAEVSVVQDSVNISGHT, for which the protein stability index came to 3.47.

For the variant PDDKLTLFFEVSVVQDSVNISGHT, the protein stability index was found to be 2.35.

For PDDKLTLFDEVSVVQDSVNISGHT, the protein stability index turned out to be 4.71.

As for PDDKLTLFCEVSVQQDSVNISGHT, the protein stability index stood at 2.7.

As for PDDKLTLFCEVSVRQDSVNISGHT, the protein stability index was 2.74.

As to PDDKLTLFCEVSVCQDSVNISGHT, the protein stability index was 1.66.

As to PDDKLTLFCEVSVLQDSVNISGHT, the protein stability index is 1.71.

Regarding PDDKLTLFCEVSVWQDSVNISGHT, the protein stability index was determined as 1.81.

For the variant PDDKLTLFCEVSVTQDSVNISGHT, the protein stability index stood at 1.86.

As for PDDKLTLFCEVSVDQDSVNISGHT, the protein stability index is 3.07.

On to PDDKLTLFCEVSVYQDSVNISGHT, for which the protein stability index came to 1.67.

Take PDDKLTLFCEVSVHQDSVNISGHT: the protein stability index came to 3.19.

Regarding PDDKLTLFCEVSVKQDSVNISGHT, the protein stability index is 2.7.

PDDKLTLFCEVSVGQDSVNISGHT: the protein stability index stood at 2.54.

PDDKLTLFCEVSVPQDSVNISGHT: the protein stability index came to 3.59.

In the case of PDDKLTLFCEVSVSQDSVNISGHT, the protein stability index turned out to be 2.07.

On to PDDKLTLFCEVSVMQDSVNISGHT, for which the protein stability index was 2.01.

Regarding PDDKLTLFCEVSVAQDSVNISGHT, the protein stability index is 2.63.

For the variant PDDKLTLFCEVSVFQDSVNISGHT, the protein stability index was 2.08.

With PDDKLTLFCEVSVEQDSVNISGHT, the protein stability index worked out at 3.34.

As for PDDKLTLFCEVSVIQDSVNISGHT, the protein stability index worked out at 2.56.

On to PDDKLTLFCEVSVNQDSVNISGHT, for which the protein stability index turned out to be 2.62.

As for PDDKLTLFCEESVVQDSVNISGHT, the protein stability index was 4.81.

As for PDDKLTLFCENSVVQDSVNISGHT, the protein stability index was 4.78.

Turning to PDDKLTLFCESSVVQDSVNISGHT, the protein stability index is 4.47.

On to PDDKLTLFCEYSVVQDSVNISGHT, for which the protein stability index was 2.46.

As to PDDKLTLFCEQSVVQDSVNISGHT, the protein stability index is 4.62.

On to PDDKLTLFCERSVVQDSVNISGHT, for which the protein stability index came to 3.67.

In the case of PDDKLTLFCELSVVQDSVNISGHT, the protein stability index amounted to 1.93.

With PDDKLTLFCEHSVVQDSVNISGHT, the protein stability index was determined as 4.28.

With PDDKLTLFCEISVVQDSVNISGHT, the protein stability index turned out to be 1.95.

PDDKLTLFCEASVVQDSVNISGHT: the protein stability index was determined as 4.34.

For the variant PDDKLTLFCEDSVVQDSVNISGHT, the protein stability index was found to be 4.64.

Regarding PDDKLTLFCECSVVQDSVNISGHT, the protein stability index turned out to be 3.34.

For the variant PDDKLTLFCEFSVVQDSVNISGHT, the protein stability index was 2.61.

On to PDDKLTLFCEMSVVQDSVNISGHT, for which the protein stability index was 2.77.

In the case of PDDKLTLFCETSVVQDSVNISGHT, the protein stability index worked out at 4.26.

For the variant PDDKLTLFCEGSVVQDSVNISGHT, the protein stability index was 4.76.

PDDKLTLFCEKSVVQDSVNISGHT: the protein stability index was determined as 4.85.

Consider PDDKLTLFCEWSVVQDSVNISGHT, for which the protein stability index came out at 2.14.

For PDDKLTLFCEPSVVQDSVNISGHT, the protein stability index was determined as 4.58.

Turning to PDDKLTLFCEVSVVGDSVNISGHT, the protein stability index came to 1.97.

In the case of PDDKLTLFCEVSVVADSVNISGHT, the protein stability index came out at 1.71.

With PDDKLTLFCEVSVVKDSVNISGHT, the protein stability index was 2.12.

As for PDDKLTLFCEVSVVSDSVNISGHT, the protein stability index was 2.44.

On to PDDKLTLFCEVSVVHDSVNISGHT, for which the protein stability index stood at 1.28.

As for PDDKLTLFCEVSVVFDSVNISGHT, the protein stability index turned out to be 3.28.

In the case of PDDKLTLFCEVSVVRDSVNISGHT, the protein stability index came out at 1.44.

As for PDDKLTLFCEVSVVDDSVNISGHT, the protein stability index was 3.19.

For PDDKLTLFCEVSVVEDSVNISGHT, the protein stability index stood at 3.4.

On to PDDKLTLFCEVSVVNDSVNISGHT, for which the protein stability index was determined as 1.97.

Take PDDKLTLFCEVSVVTDSVNISGHT: the protein stability index was determined as 2.31.

For PDDKLTLFCEVSVVPDSVNISGHT, the protein stability index was 3.1.

For the variant PDDKLTLFCEVSVVQDKVNISGHT, the protein stability index is 3.12.

For the variant PDDKLTLFCEVSVVQDLVNISGHT, the protein stability index is 3.52.

For PDDKLTLFCEVSVVQDDVNISGHT, the protein stability index was found to be 3.11.

Take PDDKLTLFCEVSVVQDEVNISGHT: the protein stability index turned out to be 2.99.

Consider PDDKLTLFCEVSVVQDHVNISGHT, for which the protein stability index came out at 1.38.

On to PDDKLTLFCEVSVVQDAVNISGHT, for which the protein stability index worked out at 2.29.

In the case of PDDKLTLFCEVSVVQDFVNISGHT, the protein stability index is 4.06.

Take PDDKLTLFCEVSVVQDMVNISGHT: the protein stability index was found to be 3.15.

For the variant PDDKLTLFCEVSVVQDCVNISGHT, the protein stability index came out at 2.61.

On to PDDKLTLFCEVSVVQDGVNISGHT, for which the protein stability index came to 2.

For PDDKLTLFCEVSVVQPSVNISGHT, the protein stability index came to 1.49.

Take PDDKLTLFCEVSVVQVSVNISGHT: the protein stability index came out at 3.7.

Regarding PDDKLTLFCEVSVVQESVNISGHT, the protein stability index amounted to 1.33.

On to PDDKLTLFCEVSVVQNSVNISGHT, for which the protein stability index stood at 1.8.

Turning to PDDKLTLFCEVSVVQSSVNISGHT, the protein stability index amounted to 2.32.

For PDDKLTLFCEVSVVQGSVNISGHT, the protein stability index amounted to 2.01.

As for PDDKLTLFCEVSVVQWSVNISGHT, the protein stability index worked out at 2.43.

On to PDDKLTLFCEVSVVQKSVNISGHT, for which the protein stability index came to 1.66.

Turning to PDDKLTLFCEVSVVQTSVNISGHT, the protein stability index was 1.53.

In the case of PDDKLTLFCEVSVVQQSVNISGHT, the protein stability index stood at 1.27.

With PDDKLTLFCEVSVVQASVNISGHT, the protein stability index came out at 2.28.

PDDKLTLFCEVSVVQHSVNISGHT: the protein stability index is 1.15.

On to PDDKLTLFCEVSVVQRSVNISGHT, for which the protein stability index stood at 1.21.

Regarding PDDKLTHFCEVSVVQDSVNISGHT, the protein stability index was 3.79.

With PDDKLTMFCEVSVVQDSVNISGHT, the protein stability index is 2.68.
